Assay results as given in publication PMC3626704 (BMC Biochemistry, 2013).
Changes are numbered by the printed parent chain.

T1: 6-Helix-Fd (HIV-1 gp41 (HXB2-like, printed sequence), stabilised)
T1 construct: also called post-fusion six-helix bundle mimic
T1 chain: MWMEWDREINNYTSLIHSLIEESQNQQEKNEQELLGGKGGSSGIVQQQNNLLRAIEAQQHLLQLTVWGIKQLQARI

B1: 25D6 bivalent scFv on phage (scFv, V domains shown)
VH: QVQLVQSGAEVRKPGASVKVSCKASGDTFSSYAISWVRQAPGQGLEWMGGIIPIFGTANYAQAFQGRVTITANESTSTAYMELSSLRSEDTAIYYCARDNPTLLGSDYWGAGTLVTVSS
VL: DIQMTQSPSTLSASIGDRVTITCRASENIYSNLAWYQQKPGKAPKLLISSASRLASGAPSRFSGSGSGTDFTLTISSLQPDDFATYYCQQNSNNPHTFGGGTKLEIK
B2: 25D3 bivalent scFv on phage (scFv, V domains shown)
VH: B1 VH
VL: B1 VL with Y30H, S31R, N32R, S49Y, S52Y, R53S, N93D, N94Y
B3: 25B6 bivalent scFv on phage (scFv, V domains shown)
VH: B1 VH
VL: B1 VL with Y30R, N32G, S49Y, S50R, N91Y, S92D, N93D, N94Y
B4: 25F10 bivalent scFv on phage (scFv, V domains shown)
VH: B1 VH
VL: B1 VL with N28G, Y30H, S31N, N32R, S50H, R53N, N91Y, N94Y, H96L
B5: 25C12 bivalent scFv on phage (scFv, V domains shown)
VH: B1 VH
VL: B1 VL with N28D, Y30S, N32V, S49Y, S50N, N91R, S92A
B6: 25G8 bivalent scFv on phage (scFv, V domains shown)
VH: B1 VH
VL: B1 VL with N28S, Y30G, S31R, N32S, S49Y, S50R, N91S, N93T, N94T, H96L
B7: 25C6 bivalent scFv on phage (scFv, V domains shown)
VH: B1 VH
VL: B1 VL with Y30S, N32R, S50N, S52Y, R53H, N91R, N94Y
B8: 25A12 bivalent scFv on phage (scFv, V domains shown)
VH: B1 VH
VL: B1 VL with N28G, Y30H, S31R, N32Y, S49Y, S50H, N91R, S92A, N94Y, H96Y
B9: 25F1 bivalent scFv on phage (scFv, V domains shown)
VH: B1 VH
VL: B1 VL with N28G, Y30N, S31N, N32S, S50R, N91Y, N93S, N94T
B10: 25D9 bivalent scFv on phage (scFv, V domains shown)
VH: B1 VH
VL: B1 VL with N28D, Y30L, S31G, N32R, S49Y, S50R, N91R, S92A, N94Y, H96L
B11: D5 scFv, purified monovalent (scFv, V domains shown)
VH: B1 VH
VL: B1 VL with N28G, S31H, N32W, S49Y, S50K, R53S, N91Y, N94Y, H96L
B12: 25A10 scFv, purified monovalent (scFv, V domains shown)
VH: B1 VH
VL: B1 VL with N28S, Y30S, S31H, S50N, N91Y, N94Y, H96L
B13: 25C10 scFv, purified monovalent (scFv, V domains shown)
VH: B1 VH
VL: B1 VL with S31G, S50R, N91R, S92Y, N93T, N94Y, H96L
B14: 25B6 scFv, purified monovalent (scFv, V domains shown)
VH: B1 VH
VL: B1 VL with Y30R, N32G, S49Y, S50R, N91Y, S92D, N93D, N94Y
B15: 25A12 scFv, purified monovalent (scFv, V domains shown)
VH: B1 VH
VL: B1 VL with N28G, Y30H, S31R, N32Y, S49Y, S50H, N91R, S92A, N94Y, H96Y

These binders were tested against T2, 5-Helix (HIV-1 group M subtype B, HXB2 (gp41 …, stabilised)) (assay: ELISA). Details: one partner purified.
T2 construct: also called designed protein based on HIV-1 gp41

Binder | F_competitive (signal with 40 nM free 5-Helix / signal without) [fraction] | phage ELISA signal OD450 [OD450]
B1 | 0.1 | 1.6
B2 | 0.1 | 1.6
B3 | 0.1 | 1.4
B4 | 0.1 | 1.7
B5 | 0.3 | 2.2
B6 | 0.1 | 2.1
B7 | 0.2 | 1.8
B8 | 0.1 | 3.2
B9 | 0.1 | 2.3
B10 | 0.2 | 3

What follows are binders tested against T2, 5-Helix (assay: ELISA). Details: both partners purified.

Binder | IC50 [nM]
B11 | 7.3
B12 | 5.4
B13 | 56
B14 | 0.6
B15 | 34

Biological target: T1, 6-Helix-Fd
Test: ELISA
Details: both partners purified

Binder | IC50 [nM]
B11 | 290
B12 | ~500
B14 | 94
B15 | 280

The binders below were run against T2, 5-Helix (assay: ELISA; competitive phage ELISA, on-phage bivalent scFv: binding to immobilised 5-Helix inhibited by free 5-Helix or free 6-Helix-Fd (concentrations for the trimer); apparent). Details: one partner purified.

Binder | IC50 [nM]
B1 | 0.5
B2 | 17
B3 | 0.3
B4 | 0.2
B5 | 100
B6 | 7.2
B7 | 32
B8 | 2.2
B9 | 0.9
B10 | 1.7

Biological target: T1, 6-Helix-Fd
Test: as above
Details: one partner purified

Binder | IC50 [nM]
B1 | ~80
B2 | 170
B3 | 23
B4 | 22
B5 | ~1000
B6 | 300
B7 | ~1000
B8 | 220
B9 | 40
B10 | 230
